{"source": "patent US20160291016A1", "about": "(CHU SAINTE JUSTINE, published 2016)", "binders": {"B1": {"name": "osteopontin (OPN), endogenous, in lysates of mouse osteoblasts (ligand)", "chain": "not shown", "notes": "Endogenous protein detected by Western blot with an anti-OPN antibody after immunoprecipitation of its receptors"}}, "key": {"[1]": {"biological_target": "T1, integrin β1 (OPN receptor subunit) of mouse osteoblasts (mouse, UniProt P09055 21-798)", "T1 construct": "Only the subunit is named; also called β1 integrin", "T1 sequence (chain, as listed by the source limits assumed, chain 1 of 2)": "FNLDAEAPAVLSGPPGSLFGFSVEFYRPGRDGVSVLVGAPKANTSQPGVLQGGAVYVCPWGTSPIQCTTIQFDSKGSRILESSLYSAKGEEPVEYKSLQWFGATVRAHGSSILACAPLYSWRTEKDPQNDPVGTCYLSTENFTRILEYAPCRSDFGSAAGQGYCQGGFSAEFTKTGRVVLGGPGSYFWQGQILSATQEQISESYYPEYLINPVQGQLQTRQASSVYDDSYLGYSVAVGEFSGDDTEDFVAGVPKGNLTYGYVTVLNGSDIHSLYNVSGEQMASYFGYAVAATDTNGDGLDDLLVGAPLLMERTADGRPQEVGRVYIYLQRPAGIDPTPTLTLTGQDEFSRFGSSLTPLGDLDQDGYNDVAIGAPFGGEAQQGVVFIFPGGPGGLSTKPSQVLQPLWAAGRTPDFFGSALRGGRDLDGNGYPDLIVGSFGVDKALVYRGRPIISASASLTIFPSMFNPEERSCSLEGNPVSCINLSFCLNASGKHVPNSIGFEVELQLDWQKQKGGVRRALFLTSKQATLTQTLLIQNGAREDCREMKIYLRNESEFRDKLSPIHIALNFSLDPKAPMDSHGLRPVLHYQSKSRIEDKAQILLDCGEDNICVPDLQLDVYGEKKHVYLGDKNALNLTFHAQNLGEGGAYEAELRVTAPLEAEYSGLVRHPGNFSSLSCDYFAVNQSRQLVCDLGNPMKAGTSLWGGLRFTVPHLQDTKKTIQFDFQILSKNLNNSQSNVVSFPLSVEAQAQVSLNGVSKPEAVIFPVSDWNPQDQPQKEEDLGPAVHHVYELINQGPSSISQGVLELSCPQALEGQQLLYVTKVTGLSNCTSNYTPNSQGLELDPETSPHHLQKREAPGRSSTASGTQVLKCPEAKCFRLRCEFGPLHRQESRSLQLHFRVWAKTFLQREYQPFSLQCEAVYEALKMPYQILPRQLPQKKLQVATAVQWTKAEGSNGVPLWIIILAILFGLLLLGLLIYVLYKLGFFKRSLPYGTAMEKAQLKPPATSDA", "T1 sequence (P09055 21-798 limits assumed, chain 2 of 2)": "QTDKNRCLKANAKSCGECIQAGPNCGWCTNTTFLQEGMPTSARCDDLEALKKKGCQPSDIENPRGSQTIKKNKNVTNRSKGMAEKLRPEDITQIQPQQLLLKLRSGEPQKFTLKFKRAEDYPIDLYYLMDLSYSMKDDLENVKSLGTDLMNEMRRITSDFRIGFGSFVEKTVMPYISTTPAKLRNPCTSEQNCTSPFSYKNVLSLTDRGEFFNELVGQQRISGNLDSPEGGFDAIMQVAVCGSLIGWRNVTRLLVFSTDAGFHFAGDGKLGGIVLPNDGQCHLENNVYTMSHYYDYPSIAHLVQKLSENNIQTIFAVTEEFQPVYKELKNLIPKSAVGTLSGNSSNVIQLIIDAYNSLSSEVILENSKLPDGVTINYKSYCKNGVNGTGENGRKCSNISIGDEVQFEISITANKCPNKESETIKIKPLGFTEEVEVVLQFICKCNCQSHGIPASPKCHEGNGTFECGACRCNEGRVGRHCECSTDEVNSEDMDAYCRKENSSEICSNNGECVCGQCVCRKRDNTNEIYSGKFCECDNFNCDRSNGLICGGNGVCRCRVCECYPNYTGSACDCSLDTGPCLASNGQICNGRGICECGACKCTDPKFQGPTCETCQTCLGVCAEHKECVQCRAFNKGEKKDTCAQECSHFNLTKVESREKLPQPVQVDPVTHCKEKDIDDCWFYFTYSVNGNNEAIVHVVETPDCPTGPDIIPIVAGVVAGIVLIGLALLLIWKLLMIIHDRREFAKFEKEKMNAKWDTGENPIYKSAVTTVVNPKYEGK", "assay": "co-immunoprecipitation from mouse osteoblast lysates, Western blot", "excerpt": "(§1) Then, was examined whether the interaction of OPN with the receptor is influenced by PTPμ deficiency. […] In contrast, levels of CD44 in OPN immunoprecipitates were similar in WT and PTPμ^{-/-} osteoblasts."}, "[2]": {"biological_target": "T2, integrin α5 (OPN receptor subunit) of mouse osteoblasts (mouse, UniProt P11688 45-1053)", "T2 construct": "Only the subunit is named; also called α5 integrin", "T2 sequence (P11688 45-1053 limits assumed, chain 1 of 2)": "as the sequence (chain, as listed by the source limits assumed, chain 1 of 2) above", "T2 sequence (chain, as listed by the source limits assumed, chain 2 of 2)": "as the sequence (P09055 21-798 limits assumed, chain 2 of 2) above", "assay": "co-immunoprecipitation from mouse osteoblast lysates, Western blot", "excerpt": "as §1"}}}
{"binder": "B1", "values": [{"measurement": "fold change of the level in the immunoprecipitates, PTPµ-/- osteoblasts against WT osteoblasts", "setting": "[1]", "value": "> 30", "unit": "fold"}, {"measurement": "fold change of the level in the immunoprecipitates, PTPµ-/- osteoblasts against WT osteoblasts", "setting": "[2]", "value": "> 30", "unit": "fold"}]}
